Assay results reported in publication PMC10397244, “BIK1 protein homeostasis is maintained by the interplay of different ubiquitin ligases in immune signaling” (Nature Communications, 2023).
Blank lines part the entries; values can stand above or below the binder they belong to.

Tests used:
Assay in all cases: pull-down; GST fusion protein or GST immobilised on GSH beads, incubated with purified recombinant protein; 20 mM Tris-HCl pH 7.5, 150 mM NaCl, 3 mM EDTA, 0.5% Triton X-100, 4 C, 2 h; immunoblot
Conditions in all cases: both partners purified
[1] = molecular target: T1, GST-RGLG2 (Arabidopsis thaliana, UniProt Q9LY87 1-468)
T1 construct: RGLG2, Arabidopsis; CDS subcloned into a GST-tag vector; also called RING DOMAIN LIGASE 2; source: E. coli BL21 (recombinant); immobilised on GSH beads; not shown: GST, N-terminal, kept
T1 sequence (looked up): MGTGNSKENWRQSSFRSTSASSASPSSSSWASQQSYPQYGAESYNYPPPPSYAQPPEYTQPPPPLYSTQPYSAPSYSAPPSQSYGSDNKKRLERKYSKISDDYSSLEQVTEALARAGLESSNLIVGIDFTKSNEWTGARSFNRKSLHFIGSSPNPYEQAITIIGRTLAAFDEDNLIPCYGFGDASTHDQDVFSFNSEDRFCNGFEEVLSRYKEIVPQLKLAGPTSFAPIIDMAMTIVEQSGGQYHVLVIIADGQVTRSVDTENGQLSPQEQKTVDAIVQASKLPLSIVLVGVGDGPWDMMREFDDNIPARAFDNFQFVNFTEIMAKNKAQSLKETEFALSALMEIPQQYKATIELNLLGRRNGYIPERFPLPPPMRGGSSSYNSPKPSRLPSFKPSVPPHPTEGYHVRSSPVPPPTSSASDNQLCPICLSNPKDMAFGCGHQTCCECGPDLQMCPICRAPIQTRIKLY

[2] = molecular target: T2, RGLG1 (recombinant, in vitro; tag of the experiment not told) (Arabidopsis thaliana, UniProt Q9SS90 1-489)
T2 construct: RGLG1, Arabidopsis; CDS subcloned into His-, GST- or MBP-tag vectors; also called RING DOMAIN LIGASE 1; source: E. coli BL21, purified
T2 sequence (looked up): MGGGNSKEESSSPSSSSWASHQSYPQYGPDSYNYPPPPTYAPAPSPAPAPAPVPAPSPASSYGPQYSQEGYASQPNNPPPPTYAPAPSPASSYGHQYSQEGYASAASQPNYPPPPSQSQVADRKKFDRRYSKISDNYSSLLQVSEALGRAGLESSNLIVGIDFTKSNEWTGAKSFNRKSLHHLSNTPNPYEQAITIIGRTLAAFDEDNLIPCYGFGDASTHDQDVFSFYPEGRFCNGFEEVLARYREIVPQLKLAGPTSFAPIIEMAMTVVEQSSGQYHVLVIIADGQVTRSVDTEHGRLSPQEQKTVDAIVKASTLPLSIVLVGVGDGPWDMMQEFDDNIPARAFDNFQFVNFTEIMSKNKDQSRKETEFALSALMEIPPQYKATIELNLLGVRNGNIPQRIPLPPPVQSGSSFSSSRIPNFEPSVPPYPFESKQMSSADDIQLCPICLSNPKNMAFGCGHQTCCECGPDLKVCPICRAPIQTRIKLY

[3] = molecular target: T3, RGLG2 (recombinant, in vitro; tag of the experiment not told) (Arabidopsis thaliana, UniProt Q9LY87 1-468)
T3 construct: RGLG2, Arabidopsis; CDS subcloned into His-, GST- or MBP-tag vectors; also called RING DOMAIN LIGASE 2; source: E. coli BL21, purified
T3 sequence (looked up): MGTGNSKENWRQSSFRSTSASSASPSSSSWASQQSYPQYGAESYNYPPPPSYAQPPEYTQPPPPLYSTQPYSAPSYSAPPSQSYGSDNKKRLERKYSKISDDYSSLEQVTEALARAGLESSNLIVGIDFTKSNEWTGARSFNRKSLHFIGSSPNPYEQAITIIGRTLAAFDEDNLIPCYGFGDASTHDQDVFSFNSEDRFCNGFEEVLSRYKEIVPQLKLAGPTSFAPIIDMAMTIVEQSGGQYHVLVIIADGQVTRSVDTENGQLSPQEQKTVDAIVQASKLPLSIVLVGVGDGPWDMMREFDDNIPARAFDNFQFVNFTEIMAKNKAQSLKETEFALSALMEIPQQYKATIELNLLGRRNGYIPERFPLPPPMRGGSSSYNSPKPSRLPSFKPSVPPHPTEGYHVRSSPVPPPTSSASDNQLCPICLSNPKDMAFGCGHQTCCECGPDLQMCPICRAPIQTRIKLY

[4] = molecular target: T4, His-FLAG-RGLG1 (Arabidopsis thaliana, UniProt Q9SS90 1-489)
T4 construct: RGLG1, Arabidopsis; CDS subcloned into modified pET28a; also called RING DOMAIN LIGASE 1; source: E. coli BL21, purified (Ni-NTA); not shown: FLAG, N-terminal, kept
T4 sequence (looked up): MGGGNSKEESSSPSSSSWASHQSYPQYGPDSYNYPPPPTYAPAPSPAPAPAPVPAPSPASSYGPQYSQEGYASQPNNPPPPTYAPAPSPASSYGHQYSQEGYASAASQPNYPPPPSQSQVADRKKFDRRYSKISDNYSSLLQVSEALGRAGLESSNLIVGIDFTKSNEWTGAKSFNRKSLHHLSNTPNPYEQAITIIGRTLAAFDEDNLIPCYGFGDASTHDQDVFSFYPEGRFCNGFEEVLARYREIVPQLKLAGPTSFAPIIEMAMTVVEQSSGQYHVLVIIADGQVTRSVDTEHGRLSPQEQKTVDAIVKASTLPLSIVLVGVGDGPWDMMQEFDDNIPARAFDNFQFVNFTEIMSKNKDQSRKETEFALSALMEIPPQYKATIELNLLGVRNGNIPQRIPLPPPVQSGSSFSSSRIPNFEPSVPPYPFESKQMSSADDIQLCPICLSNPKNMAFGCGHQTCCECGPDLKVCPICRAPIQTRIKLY

- binding result [1]: binds
B1: His-FLAG-PUB25 (natural protein, Arabidopsis thaliana, UniProt Q9LT79 1-421, looked up)
chain: MPRNIEPLDLGIQIPYHFRCPISLELMQDPVTVCTGQTYDRASIESWVSIGNNTTCPVTRAPLSDFTLIPNHTLRRLIQEWCVANRSNGVERIPTPKQPADPTSVRALLSQASAITGTHVSVRSRAAALRRLRGFARDSDKNRVLIAAHNATEILIKILFSETTSSELVSESLALLVMLPITEPNQFVSISSDPGRVEFLTRLLFDSSIETRVNAAALIEIVSTGTKSADLKGSISNSESVFEGVLDLLRNPISSRRALKIGIKTLFALCSVKSTRHIAITAGAPEILIDRLAADFDRCDTERALATVELLCRTPEGCAAFGEHALTVPLLVKTILRVSDRATEYAAGALLALCTAEERWREEAAGAGVVVQLLLMVQSECTERAKKKAQKLLKLLRDSWPDYNSFANSDDFGCSSQVVPF
notes: PUB25, Arabidopsis; CDS subcloned into modified pET28a; also called PLANT U-BOX PROTEIN 25; source: E. coli BL21, purified (Ni-NTA); not shown: FLAG, N-terminal, kept

- binding result [2]: binds
B2: PUB25 (recombinant, in vitro; tag of the experiment not told) (natural protein, Arabidopsis thaliana, UniProt Q9LT79 1-421, looked up)
chain: MPRNIEPLDLGIQIPYHFRCPISLELMQDPVTVCTGQTYDRASIESWVSIGNNTTCPVTRAPLSDFTLIPNHTLRRLIQEWCVANRSNGVERIPTPKQPADPTSVRALLSQASAITGTHVSVRSRAAALRRLRGFARDSDKNRVLIAAHNATEILIKILFSETTSSELVSESLALLVMLPITEPNQFVSISSDPGRVEFLTRLLFDSSIETRVNAAALIEIVSTGTKSADLKGSISNSESVFEGVLDLLRNPISSRRALKIGIKTLFALCSVKSTRHIAITAGAPEILIDRLAADFDRCDTERALATVELLCRTPEGCAAFGEHALTVPLLVKTILRVSDRATEYAAGALLALCTAEERWREEAAGAGVVVQLLLMVQSECTERAKKKAQKLLKLLRDSWPDYNSFANSDDFGCSSQVVPF
notes: PUB25, Arabidopsis; CDS subcloned into His-, GST- or MBP-tag vectors; also called PLANT U-BOX PROTEIN 25; source: E. coli BL21, purified

- binding result [3]: binds
- binding result [4]: binds
B3: GST-BIK1 (natural protein, Arabidopsis thaliana, UniProt O48814 1-395, looked up)
chain: MGSCFSSRVKADIFHNGKSSDLYGLSLSSRKSSSTVAAAQKTEGEILSSTPVKSFTFNELKLATRNFRPDSVIGEGGFGCVFKGWLDESTLTPTKPGTGLVIAVKKLNQEGFQGHREWLTEINYLGQLSHPNLVKLIGYCLEDEHRLLVYEFMQKGSLENHLFRRGAYFKPLPWFLRVNVALDAAKGLAFLHSDPVKVIYRDIKASNILLDADYNAKLSDFGLARDGPMGDLSYVSTRVMGTYGYAAPEYMSSGHLNARSDVYSFGVLLLEILSGKRALDHNRPAKEENLVDWARPYLTSKRKVLLIVDNRLDTQYLPEEAVRMASVAVQCLSFEPKSRPTMDQVVRALQQLQDNLGKPSQTNPVKDTKKLGFKTGTTKSSEKRFTQKPFGRHLV
notes: BIK1, Arabidopsis; pGEX-BIK1 (modified pGEX-6P-1); also called BIK1 fused to a GST tag; source: E. coli BL21, purified; immobilised on GSH beads; not shown: GST, N-terminal, kept
